According to the supplement of paper PMC9732359:
± gives the uncertainty stated by the source.

Experiment: protein stability index of a GFP-peptide fusion (yeast GPS) (PSI 1-4); higher = more stable; sorted into four equal gates, so the index is relative within each strain
Method in brief: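 Plasmids isolated from each sorting gate were PCR-amplified and Illumina-sequenced, and barcodes assigned the reads to strains. The gates, four of equal size, were set by GFP/Cherry fluorescence ratio on mid-log cultures in leucine-free medium. These cultures were yeast carrying a pooled library of tiled 17-residue yeast protein peptides fused downstream of GFP on a plasmid that also expresses Cherry. The protein stability index is the sum of every gate's read frequency times its gate number.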

| Sequence | protein stability index (doa10∆) | protein stability index (pdr5∆) | protein stability index (san1∆) | protein stability index (ubr1∆) |
| --- | --- | --- | --- | --- |
| GELDVLQIESVTKETVH [PRP8] | 2.54 ± 0.054 | 2.73 ± 0.066 | 2.55 ± 0.07 | 2.76 ± 0.064 |
| ELNQDRLGGDDLRIRIK [SNF5] | 3.31 ± 0.11 | 3.36 ± 0.19 | 3.21 ± 0.12 | 2.91 ± 0.15 |
| LVLLNGRLRNKSHKQTI [RPP1] | 2.65 ± 0.088 | 2.85 ± 0.059 | 2.98 ± 0.047 | 2.97 ± 0.061 |
| ALLTKRLYPHWDHPVIA [CSN12] | 2.19 ± 0.13 | 1.91 ± 0.1 | 1.7 ± 0.17 | 1.89 ± 0.068 |
| IFLSKENSAVAAKEGLA [COR1] | 1.48 ± 0.058 | 2.19 ± 0.072 | 1.95 ± 0.14 | 1.6 ± 0.062 |
| KVLCLAVAVGNVEMEED [RPL1A] | 1.58 ± 0.064 | 1.67 ± 0.053 | 1.33 ± 0.09 | 1.68 ± 0.044 |
| EKASGFEDSMQFKKLTH [PRP8] | 2.81 ± 0.085 | 3.12 ± 0.083 | 2.99 ± 0.087 | 3.01 ± 0.084 |
| STLYKYLKESKRKYDEI [SWI3] | 3.51 ± 0.12 | 3.42 ± 0.24 | 3.21 ± 0.17 | 2.84 ± 0.15 |
| YSNSHQMAVHIATDGGR [RET1] | 1.98 ± 0.071 | 2.95 ± 0.086 | 2.35 ± 0.13 | 2.73 ± 0.057 |
| QLIKVAVHNGGRKHVAA [RPL9A] | 2.47 ± 0.091 | 2.85 ± 0.087 | 2.66 ± 0.097 | 2.72 ± 0.03 |
| MMENYQNISPVYSVDPL [PRP8] | 2.08 ± 0.049 | 1.88 ± 0.058 | 2.21 ± 0.064 | 1.74 ± 0.044 |
| PLLSNYASKINRAEGPE [RGR1] | 2.88 ± 0.12 | 2.8 ± 0.1 | 2.87 ± 0.12 | 2.55 ± 0.082 |
| SDERAKLELINRYAYVL [LRP1] | 2.55 ± 0.067 | 3.17 ± 0.16 | 2.79 ± 0.11 | 2.93 ± 0.15 |
| IARLYSCISISDIISML [RRI2] | 1.37 ± 0.061 | 1.35 ± 0.05 | 1.24 ± 0.093 | 1.17 ± 0.029 |
| GALIHKAGLMTGGISGD [SMC1] | 2.63 ± 0.16 | 2.73 ± 0.11 | 2.72 ± 0.06 | 2.75 ± 0.087 |
| IDELIDTKLRLEKSKNE [YIL149C/MLP2] | 2.62 ± 0.047 | 2.81 ± 0.045 | 2.8 ± 0.04 | 2.8 ± 0.032 |
| DAKTSYPNEVLKFNHGN [REC8] | 2.78 ± 0.052 | 2.95 ± 0.072 | 3.02 ± 0.058 | 2.95 ± 0.065 |
| LGNDIPHDLIIGTADIF [BRR2] | 2.6 ± 0.055 | 2.76 ± 0.068 | 2.84 ± 0.059 | 2.86 ± 0.047 |
| FPQGLNIVMDSKQNGIE [SSN8] | 3.11 ± 0.091 | 3.04 ± 0.21 | 3.26 ± 0.078 | 2.61 ± 0.1 |
| NRTKSTTIKNIDILNRT [SMC4] | 2.15 ± 0.046 | 2.55 ± 0.043 | 2.38 ± 0.062 | 2.53 ± 0.041 |
| RYLTLLSNEFTATNSKG [ECM29] | 2.89 ± 0.073 | 2.76 ± 0.064 | 2.61 ± 0.088 | 2.83 ± 0.052 |
| IIDRGRNVLSASLDGTI [RPN14] | 3.1 ± 0.093 | 2.52 ± 0.065 | 2.97 ± 0.055 | 2.77 ± 0.044 |
| LQLNEAEEFVAGVSHGT [SMX3] | 3.36 ± 0.25 | 2.96 ± 0.23 | 3.01 ± 0.28 | 3.41 ± 0.11 |
| FNNEKETEKFALERNWP [RPN12] | 2.68 ± 0.07 | 2.63 ± 0.055 | 2.76 ± 0.041 | 2.84 ± 0.037 |
| MMMQQQLKNVQLDSYLV [MED2] | 2.21 ± 0.037 | 2.45 ± 0.061 | 1.69 ± 0.079 | 2.17 ± 0.032 |

| Sequence | protein stability index (doa10∆) | protein stability index (pdr5∆) | protein stability index (san1∆) | protein stability index (ubr1∆) |
| --- | --- | --- | --- | --- |
| PKNVKGEEDADEEETAE [RPN1] | 3.21 ± 0.17 | 3.16 ± 0.26 | 3.01 ± 0.14 |  |
| LQGDLTFTKKCLENARS [SIR4] | 3.23 ± 0.064 | 3.11 ± 0.059 | 3.05 ± 0.047 | 2.96 ± 0.041 |
| LEMSTEDFVKLAPARVR [RPS15] | 2.83 ± 0.13 | 3.05 ± 0.1 | 3.07 ± 0.065 | 2.78 ± 0.07 |
| SLEGCVEMAWIMGFISY [FAS2] | 1.97 ± 0.084 | 1.86 ± 0.061 | 2.35 ± 0.086 | 2.27 ± 0.078 |
| KMFQDIRLSKILEDDFA [CDC53] | 2.94 ± 0.062 | 3.04 ± 0.088 | 2.62 ± 0.072 | 2.93 ± 0.063 |
| PNFEASFVHGVVGQLFQ [SMC2] | 1.61 ± 0.098 | 2.56 ± 0.11 | 2.58 ± 0.1 | 3.18 ± 0.12 |
| NGVRALFHSCTRIQYVD [GRR1] | 2.08 ± 0.088 | 2.31 ± 0.055 | 1.86 ± 0.068 | 2.59 ± 0.051 |
| RGTIPLLERYIGNLITR [PRP8] | 1.52 ± 0.055 | 1.55 ± 0.045 | 1.48 ± 0.08 | 1.6 ± 0.039 |
| RAVKEIKKFAKLHMGTD [RPL31A] | 1.7 ± 0.036 | 1.32 ± 0.041 | 1.23 ± 0.061 | 1.58 ± 0.035 |
| THPHAADGSSYMEQGNN [SKI6] | 3.05 ± 0.073 | 3.2 ± 0.063 | 3.02 ± 0.052 | 3.07 ± 0.047 |
| IIANINSFTKGNVFSPI [SNU114] | 2.18 ± 0.085 | 2.54 ± 0.067 | 2.43 ± 0.05 | 2.21 ± 0.039 |
| SLGIRPCLRKYEEFRDV [RRP43] | 3.27 ± 0.19 |  | 3.21 ± 0.18 | 2.96 ± 0.076 |
| LLKLERKKTEAVARLKS [SNF2] | 1.89 ± 0.068 | 2.14 ± 0.083 | 2.06 ± 0.091 | 1.97 ± 0.061 |
| LPAPPVCIRPSVMMQDS [RPO31] | 1.61 ± 0.081 | 2.08 ± 0.1 | 1.93 ± 0.11 | 2.04 ± 0.095 |
| ADNVDKILEQFEYVLYP [FAS2] | 2.05 ± 0.067 | 1.94 ± 0.089 | 2.17 ± 0.094 | 2.57 ± 0.08 |
| NSLLTIVWRFISENTFP [RPC34] | 1.82 ± 0.059 | 2.05 ± 0.042 | 2.08 ± 0.076 | 2.31 ± 0.045 |
| IVEEDLEPFEASKETAE [FAS2] | 3.42 ± 0.18 | 3.21 ± 0.11 | 3.1 ± 0.087 | 3.25 ± 0.089 |
| TWENEFLDSQRVWAEYA [PRP8] | 2.14 ± 0.088 | 2.27 ± 0.072 | 2.13 ± 0.11 | 2.89 ± 0.11 |
| GSESDDSEGSIKQTSDE [ECM29] | 3.32 ± 0.1 | 3.57 ± 0.083 | 3.32 ± 0.068 | 3.42 ± 0.062 |
| ESYYNWKYNNFLQKFEI [YML103C/NUP188] | 2.47 ± 0.056 | 2.83 ± 0.052 | 2.77 ± 0.059 | 2.72 ± 0.034 |
| FGSKPTGATSLFGSSNN [YGL172W/NUP49] | 3.39 ± 0.11 | 3.59 ± 0.11 | 3.54 ± 0.044 | 3.64 ± 0.1 |
| ETALEFLEKEKQLTLLR [SMC4] | 3.46 ± 0.1 | 2.65 ± 0.074 | 2.66 ± 0.12 | 2.92 ± 0.058 |
| VLRIPEEYLDANVFRLE [MTW1] | 3.34 ± 0.1 | 3.44 ± 0.097 | 3.19 ± 0.072 | 3.23 ± 0.053 |
| IEEQDKKVQALQSDKNF [ITC1] | 3.23 ± 0.076 | 3.11 ± 0.054 | 3.14 ± 0.045 | 3.16 ± 0.036 |
| SYIGTIIVKDKSNDSEG [POP1] | 1.4 ± 0.1 | 1.44 ± 0.052 | 1.45 ± 0.093 | 1.35 ± 0.093 |
